This is an account of results in patent US20240124607A1 (Merck Sharp & Dohme, published 2024).

What all share (experiment): SPR, 37C, pH 7.4
The target of assay [1] is T1, Human CEACAM5 I80V V83A I112V I113T (human, UniProt P06731 35-685, limits assumed).
T1 chain: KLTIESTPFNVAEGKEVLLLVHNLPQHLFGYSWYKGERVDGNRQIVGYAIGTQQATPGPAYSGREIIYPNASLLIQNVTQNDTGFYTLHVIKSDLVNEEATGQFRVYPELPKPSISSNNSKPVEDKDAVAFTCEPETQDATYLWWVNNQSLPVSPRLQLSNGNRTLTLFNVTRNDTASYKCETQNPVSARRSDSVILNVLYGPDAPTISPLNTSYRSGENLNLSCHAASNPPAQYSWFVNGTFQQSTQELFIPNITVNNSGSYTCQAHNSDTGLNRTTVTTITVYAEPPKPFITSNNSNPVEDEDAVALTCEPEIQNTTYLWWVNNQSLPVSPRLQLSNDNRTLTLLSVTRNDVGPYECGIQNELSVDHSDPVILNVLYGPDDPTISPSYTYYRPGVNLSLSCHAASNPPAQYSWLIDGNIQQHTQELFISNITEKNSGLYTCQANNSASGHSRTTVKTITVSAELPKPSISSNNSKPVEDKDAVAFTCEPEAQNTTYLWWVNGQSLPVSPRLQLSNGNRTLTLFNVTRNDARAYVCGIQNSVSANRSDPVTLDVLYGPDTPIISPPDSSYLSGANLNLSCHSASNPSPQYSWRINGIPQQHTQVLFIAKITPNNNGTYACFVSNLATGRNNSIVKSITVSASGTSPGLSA

The target of assay [2] is T2, Human CEACAM5 V83A (human, UniProt P06731 35-685, limits assumed).
T2 sequence: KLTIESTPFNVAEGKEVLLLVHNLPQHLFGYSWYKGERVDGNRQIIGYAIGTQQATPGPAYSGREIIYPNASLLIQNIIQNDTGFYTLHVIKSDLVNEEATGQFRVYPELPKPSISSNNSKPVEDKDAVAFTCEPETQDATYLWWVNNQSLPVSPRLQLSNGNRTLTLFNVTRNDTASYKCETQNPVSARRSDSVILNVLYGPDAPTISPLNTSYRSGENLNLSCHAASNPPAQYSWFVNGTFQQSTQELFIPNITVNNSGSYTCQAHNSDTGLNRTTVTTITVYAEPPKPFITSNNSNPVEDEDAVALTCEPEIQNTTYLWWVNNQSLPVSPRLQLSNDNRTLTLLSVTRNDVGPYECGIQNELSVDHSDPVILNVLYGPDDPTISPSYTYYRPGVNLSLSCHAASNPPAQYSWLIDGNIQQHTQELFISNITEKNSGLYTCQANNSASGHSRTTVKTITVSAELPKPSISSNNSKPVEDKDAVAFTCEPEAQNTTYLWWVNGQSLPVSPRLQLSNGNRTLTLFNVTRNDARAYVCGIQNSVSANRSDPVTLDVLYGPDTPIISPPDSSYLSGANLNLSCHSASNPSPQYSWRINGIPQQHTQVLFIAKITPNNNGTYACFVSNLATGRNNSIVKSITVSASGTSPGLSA

Assay [3] has as its target T3, Human CEACAM5 I112V (human, UniProt P06731 35-685, limits assumed).
T3 sequence: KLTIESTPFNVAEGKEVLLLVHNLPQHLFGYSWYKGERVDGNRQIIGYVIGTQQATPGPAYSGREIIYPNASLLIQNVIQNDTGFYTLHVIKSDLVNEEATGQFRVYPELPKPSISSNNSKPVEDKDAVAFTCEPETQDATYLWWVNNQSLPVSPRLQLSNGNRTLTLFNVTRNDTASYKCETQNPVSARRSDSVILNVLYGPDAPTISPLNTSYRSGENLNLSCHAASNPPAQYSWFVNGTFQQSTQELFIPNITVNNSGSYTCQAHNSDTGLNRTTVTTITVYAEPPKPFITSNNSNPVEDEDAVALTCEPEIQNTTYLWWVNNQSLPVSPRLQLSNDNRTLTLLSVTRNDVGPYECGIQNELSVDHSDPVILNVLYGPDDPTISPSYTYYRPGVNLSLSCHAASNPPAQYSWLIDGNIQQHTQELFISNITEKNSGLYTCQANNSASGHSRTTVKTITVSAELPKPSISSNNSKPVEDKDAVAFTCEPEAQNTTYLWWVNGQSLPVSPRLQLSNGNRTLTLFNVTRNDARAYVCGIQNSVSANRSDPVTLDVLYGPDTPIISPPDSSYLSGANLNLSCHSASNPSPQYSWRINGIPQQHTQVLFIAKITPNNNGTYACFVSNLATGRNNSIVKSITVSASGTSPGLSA

In assay [4] the target is T4, Human CEACAM5 I113T (human, UniProt P06731 35-685, limits assumed).
T4 sequence: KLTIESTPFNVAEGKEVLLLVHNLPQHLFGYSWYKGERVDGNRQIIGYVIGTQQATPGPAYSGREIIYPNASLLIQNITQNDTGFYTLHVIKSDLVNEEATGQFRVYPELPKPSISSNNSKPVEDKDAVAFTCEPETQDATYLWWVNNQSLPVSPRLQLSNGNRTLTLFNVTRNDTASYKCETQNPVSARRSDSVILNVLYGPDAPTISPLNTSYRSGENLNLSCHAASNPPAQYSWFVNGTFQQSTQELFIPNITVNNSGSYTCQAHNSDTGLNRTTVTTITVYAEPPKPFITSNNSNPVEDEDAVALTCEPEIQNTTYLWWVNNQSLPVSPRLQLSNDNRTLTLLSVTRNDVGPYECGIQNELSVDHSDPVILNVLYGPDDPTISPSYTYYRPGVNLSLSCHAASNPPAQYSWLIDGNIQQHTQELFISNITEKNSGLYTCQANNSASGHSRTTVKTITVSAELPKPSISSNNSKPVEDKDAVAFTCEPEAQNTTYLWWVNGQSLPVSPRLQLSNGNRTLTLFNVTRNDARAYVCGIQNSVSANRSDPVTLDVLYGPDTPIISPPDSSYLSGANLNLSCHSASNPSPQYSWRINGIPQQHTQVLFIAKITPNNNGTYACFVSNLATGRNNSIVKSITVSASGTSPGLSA

B1: AB0466 F3' CEACAM5 TriNKET (bispecific antibody, human IgG1, kappa)
chain: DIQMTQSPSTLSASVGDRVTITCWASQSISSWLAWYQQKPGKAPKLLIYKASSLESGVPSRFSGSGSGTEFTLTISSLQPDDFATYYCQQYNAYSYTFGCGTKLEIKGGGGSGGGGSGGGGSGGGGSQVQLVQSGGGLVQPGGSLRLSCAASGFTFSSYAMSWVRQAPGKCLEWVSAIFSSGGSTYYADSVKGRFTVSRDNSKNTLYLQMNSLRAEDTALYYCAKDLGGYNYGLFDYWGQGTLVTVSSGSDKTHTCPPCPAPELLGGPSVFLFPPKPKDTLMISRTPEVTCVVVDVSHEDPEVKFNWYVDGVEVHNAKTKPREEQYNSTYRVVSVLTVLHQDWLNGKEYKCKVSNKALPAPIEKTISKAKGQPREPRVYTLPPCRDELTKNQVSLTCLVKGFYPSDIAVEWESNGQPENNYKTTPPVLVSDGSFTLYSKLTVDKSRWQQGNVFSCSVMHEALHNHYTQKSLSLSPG
heavy: EVQLVESGGGLVKPGGSLRLSCAASGFTFSSYSMNWVRQAPGKGLEWVSSISSSSSYIYYADSVKGRFTISRDNAKNSLYLQMNSLRAEDTAVYYCARGAPIGAAAGWFDPWGQGTLVTVSSASTKGPSVFPLAPSSKSTSGGTAALGCLVKDYFPEPVTVSWNSGALTSGVHTFPAVLQSSGLYSLSSVVTVPSSSLGTQTYICNVNHKPSNTKVDKKVEPKSCDKTHTCPPCPAPELLGGPSVFLFPPKPKDTLMISRTPEVTCVVVDVSHEDPEVKFNWYVDGVEVHNAKTKPREEQYNSTYRVVSVLTVLHQDWLNGKEYKCKVSNKALPAPIEKTISKAKGQPREPQVCTLPPSRDELTENQVSLTCLVKGFYPSDIAVEWESNGQPENNYKTTPPVLDSDGSFFLYSWLTVDKSRWQQGNVFSCSVMHEALHNHYTQKSLSLSPG
light: DIQMTQSPSSVSASVGDRVTITCRASQGISSWLAWYQQKPGKAPKLLIYAASSLQSGVPSRFSGSGSGTDFTLTISSLQPEDFATYYCQQGVSFPRTFGGGTKVEIKRTVAAPSVFIFPPSDEQLKSGTASVVCLLNNFYPREAKVQWKVDNALQSGNSQESVTEQDSKDSTYSLSSTLTLSKADYEKHKVYACEVTHQGLSSPVTKSFNRGEC
As to B1, the dissociation constant (Kd) (commonly the free concentration of one partner at which half of the binding sites on the other are occupied at equilibrium, for simple one-to-one binding) was determined as 61 nM in assay [1], 66 nM in assay [2], 11 nM in assay [3] and 8.4 nM in assay [4]. In addition, the kon (in general, a measure of how fast the partners come together) is 590000 M⁻¹ s⁻¹ in assay [1], 140000 M⁻¹ s⁻¹ in assay [2], 130000 M⁻¹ s⁻¹ in assay [3] and 160000 M⁻¹ s⁻¹ in assay [4].

B2: AB0411 F3' CEACAM5 TriNKET (bispecific antibody, human IgG1, kappa)
chain: DIQLTQSPATLSVSPGERATLSCRASQSVSSSYLAWYQQKPGQAPRLLIYGASSRATGIPDRFSGSGSGTDFTLTISRLEPEDFAVYYCQQYNNWPLTFGCGTKVEIKGGGGSGGGGSGGGGSGGGGSQVQLVQSGGGLVQPGGSLRLSCAASGFTFTSYAMSWVRQAPGKCLEWVSAISGTGDSTFYADSVKGRFTFSRDNSKNTLYLQMNSLRAEDTAVYYCAKDLGWLQYGLFDYWGQGTLVTVSSGSDKTHTCPPCPAPELLGGPSVFLFPPKPKDTLMISRTPEVTCVVVDVSHEDPEVKFNWYVDGVEVHNAKTKPREEQYNSTYRVVSVLTVLHQDWLNGKEYKCKVSNKALPAPIEKTISKAKGQPREPRVYTLPPCRDELTKNQVSLTCLVKGFYPSDIAVEWESNGQPENNYKTTPPVLVSDGSFTLYSKLTVDKSRWQQGNVFSCSVMHEALHNHYTQKSLSLSPG
heavy: EVQLVESGGGLVKPGGSLRLSCAASGFTFSSYSMNWVRQAPGKGLEWVSSISSSSSYIYYADSVKGRFTISRDNAKNSLYLQMNSLRAEDTAVYYCARGAPIGAAAGWFDPWGQGTLVTVSSASTKGPSVFPLAPSSKSTSGGTAALGCLVKDYFPEPVTVSWNSGALTSGVHTFPAVLQSSGLYSLSSVVTVPSSSLGTQTYICNVNHKPSNTKVDKKVEPKSCDKTHTCPPCPAPELLGGPSVFLFPPKPKDTLMISRTPEVTCVVVDVSHEDPEVKFNWYVDGVEVHNAKTKPREEQYNSTYRVVSVLTVLHQDWLNGKEYKCKVSNKALPAPIEKTISKAKGQPREPQVCTLPPSRDELTENQVSLTCLVKGFYPSDIAVEWESNGQPENNYKTTPPVLDSDGSFFLYSWLTVDKSRWQQGNVFSCSVMHEALHNHYTQKSLSLSPG
light: DIQMTQSPSSVSASVGDRVTITCRASQGISSWLAWYQQKPGKAPKLLIYAASSLQSGVPSRFSGSGSGTDFTLTISSLQPEDFATYYCQQGVSFPRTFGGGTKVEIKRTVAAPSVFIFPPSDEQLKSGTASVVCLLNNFYPREAKVQWKVDNALQSGNSQESVTEQDSKDSTYSLSSTLTLSKADYEKHKVYACEVTHQGLSSPVTKSFNRGEC
Regarding B2, the Kd in assay [1] amounted to 6.4 nM; in assay [2] it was 8.2 nM; in assay [3] it was 2 nM; in assay [4] it was 1.9 nM. The kon came out at 260000 M⁻¹ s⁻¹ in assay [1], 180000 M⁻¹ s⁻¹ in assay [2], 190000 M⁻¹ s⁻¹ in assay [3] and 210000 M⁻¹ s⁻¹ in assay [4].

B3: AB0621 F3' CEACAM5 TriNKET (bispecific antibody, human IgG1, kappa)
chain: DIVMTQSPDSLAVSLGERATINCKSSHSLLYGNFQNNYLAWYQQKPGQPPKLLIYWASTRESGVPDRFSGSGSGTDFTLTISSLQAEDVAVYYCQQYYSYPYTFGCGTKLEIKGGGGSGGGGSGGGGSGGGGSQVQLVQSGAEVKKPGASVKVSCKASGYTFTAYTIHWVRQAPGQCLEWMGYINPSSGYTEYNQKFKDRTTLTADTSISTAYMELSRLRSDDTAVYYCTREGGLLWFDYWGQGTLVTVSSGSDKTHTCPPCPAPELLGGPSVFLFPPKPKDTLMISRTPEVTCVVVDVSHEDPEVKFNWYVDGVEVHNAKTKPREEQYNSTYRVVSVLTVLHQDWLNGKEYKCKVSNKALPAPIEKTISKAKGQPREPRVYTLPPCRDELTKNQVSLTCLVKGFYPSDIAVEWESNGQPENNYKTTPPVLVSDGSFTLYSKLTVDKSRWQQGNVFSCSVMHEALHNHYTQKSLSLSPG
heavy: EVQLVESGGGLVKPGGSLRLSCAASGFTFSSYSMNWVRQAPGKGLEWVSSISSSSSYIYYADSVKGRFTISRDNAKNSLYLQMNSLRAEDTAVYYCARGAPIGAAAGWFDPWGQGTLVTVSSASTKGPSVFPLAPSSKSTSGGTAALGCLVKDYFPEPVTVSWNSGALTSGVHTFPAVLQSSGLYSLSSVVTVPSSSLGTQTYICNVNHKPSNTKVDKKVEPKSCDKTHTCPPCPAPELLGGPSVFLFPPKPKDTLMISRTPEVTCVVVDVSHEDPEVKFNWYVDGVEVHNAKTKPREEQYNSTYRVVSVLTVLHQDWLNGKEYKCKVSNKALPAPIEKTISKAKGQPREPQVCTLPPSRDELTENQVSLTCLVKGFYPSDIAVEWESNGQPENNYKTTPPVLDSDGSFFLYSWLTVDKSRWQQGNVFSCSVMHEALHNHYTQKSLSLSPG
light: DIQMTQSPSSVSASVGDRVTITCRASQGISSWLAWYQQKPGKAPKLLIYAASSLQSGVPSRFSGSGSGTDFTLTISSLQPEDFATYYCQQGVSFPRTFGGGTKVEIKRTVAAPSVFIFPPSDEQLKSGTASVVCLLNNFYPREAKVQWKVDNALQSGNSQESVTEQDSKDSTYSLSSTLTLSKADYEKHKVYACEVTHQGLSSPVTKSFNRGEC
In the case of B3, the Kd in assay [1] is 22 nM; in assay [2] it was 34 nM; in assay [3], 38 nM; in assay [4], 29 nM. Also, the kon in assay [1] is 64000 M⁻¹ s⁻¹; in assay [2], 44000 M⁻¹ s⁻¹; in assay [3] it was 42000 M⁻¹ s⁻¹; in assay [4], 47000 M⁻¹ s⁻¹.
